This note sets out measurements from publication PMC4294129 (Drug Design, Development and Therapy, 2015).

Assay [1] deals with human platelets. Briefly: Collagen I-induced platelet aggregation in platelet rich plasma. It is filed as cell-based. To be noted: 10 μM, 2 μg/mL collagen I, saline 85%±19%, mean ± SD, four donors.
Assay [2] addresses GST-tagged α2A domain (UniProt P17301). Briefly: ELISA. In general terms: ELISA stands for enzyme-linked immunosorbent assay.
Chain of UniProt P17301 (P17301 30-1181): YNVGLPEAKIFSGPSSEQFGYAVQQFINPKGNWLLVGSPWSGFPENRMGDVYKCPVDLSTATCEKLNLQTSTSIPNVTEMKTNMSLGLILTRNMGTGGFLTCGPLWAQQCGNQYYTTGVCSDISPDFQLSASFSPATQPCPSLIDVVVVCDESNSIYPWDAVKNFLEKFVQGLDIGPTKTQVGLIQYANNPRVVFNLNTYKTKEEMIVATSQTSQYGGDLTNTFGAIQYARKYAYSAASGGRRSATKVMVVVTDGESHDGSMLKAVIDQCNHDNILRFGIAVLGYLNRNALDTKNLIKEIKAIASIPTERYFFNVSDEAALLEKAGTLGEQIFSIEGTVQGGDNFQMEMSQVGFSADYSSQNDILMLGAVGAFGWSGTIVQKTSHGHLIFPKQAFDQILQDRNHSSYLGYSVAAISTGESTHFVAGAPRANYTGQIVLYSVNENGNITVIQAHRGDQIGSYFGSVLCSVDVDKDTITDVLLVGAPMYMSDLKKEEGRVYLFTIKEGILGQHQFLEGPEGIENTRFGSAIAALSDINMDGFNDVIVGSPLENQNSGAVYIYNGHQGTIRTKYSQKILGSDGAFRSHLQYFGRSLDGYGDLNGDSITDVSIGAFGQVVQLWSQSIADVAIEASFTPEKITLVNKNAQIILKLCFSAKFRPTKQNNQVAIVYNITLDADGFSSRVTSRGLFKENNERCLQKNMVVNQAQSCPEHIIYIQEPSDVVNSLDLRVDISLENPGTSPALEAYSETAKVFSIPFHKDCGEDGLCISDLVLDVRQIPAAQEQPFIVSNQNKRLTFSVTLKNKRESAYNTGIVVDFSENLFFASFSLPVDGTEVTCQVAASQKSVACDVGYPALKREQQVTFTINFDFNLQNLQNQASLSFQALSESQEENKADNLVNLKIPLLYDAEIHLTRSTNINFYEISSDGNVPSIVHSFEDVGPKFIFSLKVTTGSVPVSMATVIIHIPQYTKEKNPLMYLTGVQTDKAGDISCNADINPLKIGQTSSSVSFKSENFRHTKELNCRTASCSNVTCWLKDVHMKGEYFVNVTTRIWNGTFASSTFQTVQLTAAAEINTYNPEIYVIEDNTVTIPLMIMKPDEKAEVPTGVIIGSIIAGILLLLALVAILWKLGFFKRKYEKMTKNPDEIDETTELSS

Turning to `CC(=O)Oc1cc2c(s1)CCN(C(C(=O)C1CC1)c1ccccc1F)C2` (stereo not drawn) [prasugrel], the “platelet aggregation, collagen-induced, in PRP” value in assay [1] is recorded as 34%±18%.
In turn, Vipegitide (peptide) registered a percent inhibition of GST-α2A binding to collagen I in assay [2] of 30%.
Consider Vipegitide-PEG2 (peptide), for which, in assay [2], the percent inhibition of GST-α2A binding to collagen I turned out to be 30%.
